# Measured values from paper PMC3905869.
# T1: VirB delta C (Shigella flexneri, UniProt P0A247 1-250)
# T1 sequence: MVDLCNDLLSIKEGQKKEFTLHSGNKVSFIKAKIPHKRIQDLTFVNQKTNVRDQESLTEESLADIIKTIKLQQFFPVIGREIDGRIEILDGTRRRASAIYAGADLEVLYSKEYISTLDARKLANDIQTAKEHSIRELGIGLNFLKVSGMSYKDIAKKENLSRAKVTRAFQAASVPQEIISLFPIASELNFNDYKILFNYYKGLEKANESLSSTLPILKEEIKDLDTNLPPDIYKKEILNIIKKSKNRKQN
# T2: VirB FL (Shigella flexneri, UniProt P0A247 1-309)
# T2 sequence: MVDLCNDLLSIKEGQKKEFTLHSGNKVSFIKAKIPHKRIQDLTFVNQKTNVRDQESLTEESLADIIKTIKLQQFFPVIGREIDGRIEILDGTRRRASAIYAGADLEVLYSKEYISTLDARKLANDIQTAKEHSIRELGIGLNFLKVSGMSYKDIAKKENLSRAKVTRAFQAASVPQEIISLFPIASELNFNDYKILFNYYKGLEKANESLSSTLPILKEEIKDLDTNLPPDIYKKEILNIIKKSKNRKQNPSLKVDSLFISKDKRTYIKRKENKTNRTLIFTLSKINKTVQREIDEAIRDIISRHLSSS
# T3: VirB delta N (Shigella flexneri, UniProt P0A247 129-309)
# T3 sequence: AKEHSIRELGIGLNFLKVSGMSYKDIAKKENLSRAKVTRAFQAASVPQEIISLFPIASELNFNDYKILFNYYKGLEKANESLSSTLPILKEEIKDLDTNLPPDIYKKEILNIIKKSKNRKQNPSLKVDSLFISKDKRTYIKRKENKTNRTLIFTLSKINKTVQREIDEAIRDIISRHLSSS
# T4: VirB core (HTH domain) (Shigella flexneri, UniProt P0A247 129-250)
# T4 sequence: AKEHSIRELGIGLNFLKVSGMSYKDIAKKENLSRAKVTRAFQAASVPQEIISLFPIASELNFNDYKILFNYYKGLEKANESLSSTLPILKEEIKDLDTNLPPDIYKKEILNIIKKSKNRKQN
# Experiments:
# VirB delta C [1] = target: T1, VirB delta C; assay: competition
# VirB FL [2] = target: T2, VirB FL; assay: EMSA with self-competition
# VirB delta N [3] = target: T3, VirB delta N; assay: EMSA with self-competition
# VirB delta C [4] = target: T1, VirB delta C; assay: EMSA with self-competition
# VirB delta N [5] = target: T3, VirB delta N; assay: fluorescence anisotropy
# VirB FL [6] = target: T2, VirB FL; assay: fluorescence anisotropy
# VirB delta C [7] = target: T1, VirB delta C; assay: fluorescence anisotropy
# VirB core (HTH domain) = target: T4, VirB core (HTH domain); assay: fluorescence anisotropy
binder,measurement,setting,value
icsB-mut (dsDNA) DNA 1: AAACTCGTTTCATCGCTGGGCCCCAC DNA 2: GTGGGGCCCAGCGATGAAACGAGTTT,binding result,VirB delta C [1],no binding
icsB-wt (dsDNA) DNA 1: AAACTCGTTTCATCATGAAATCCCAC DNA 2: GTGGGATTTCATGATGAAACGAGTTT,binding result,VirB FL [2],binds
same,binding result,VirB delta N [3],binds
same,binding result,VirB delta C [4],binds
FAM-icsB-wt-50bp (dsDNA) DNA 1: CTCGTTTCATCATGAAATCCCACAAGATAAAGTGCCTGATGTATCAGGCT DNA 2: AGCCTGATACATCAGGCACTTTATCTTGTGGGATTTCATGATGAAACGAG,Kd,VirB delta N [5],12 ± 0.3 nM
same,Kd,VirB FL [6],11 ± 0.3 nM
same,Kd,VirB delta C [7],139 ± 15 nM
same,Kd,VirB core (HTH domain),16 ± 3 nM
